Publication doi:10.1101/2025.11.06.687013
Starred links: 1 amine or outer side, 2 acyl side, 3 side chain; linkers in the order of their positions; H or OH if unused. Non-standard residues stand in square brackets, D forms with d. No end group written: not given here. βAsp = O=C(O)[C@H](CC(=O)[*:2])N[*:1]

Biological target: H-2K^b (mouse (endogenous in RMA-S))
Assay: flow cytometry on cells

Binder: I[βAsp]FDFPKL [ca3_(isoasp)]
- fold decrease of H-2Kb display against ca3: > 100 fold
